Reference: patent publication US20250313626A1 (HARBOUR BIOMED SHANGHAI, published 2025)
Read-outs that look alike come from different tables or passages of the source.

T1: CD200R1a on PathHunter Jurkat CD200R1a signaling cells (Eurofins DiscoverX, 93-1136C19) (human, UniProt Q8TD46 25-348)
T1 sequence: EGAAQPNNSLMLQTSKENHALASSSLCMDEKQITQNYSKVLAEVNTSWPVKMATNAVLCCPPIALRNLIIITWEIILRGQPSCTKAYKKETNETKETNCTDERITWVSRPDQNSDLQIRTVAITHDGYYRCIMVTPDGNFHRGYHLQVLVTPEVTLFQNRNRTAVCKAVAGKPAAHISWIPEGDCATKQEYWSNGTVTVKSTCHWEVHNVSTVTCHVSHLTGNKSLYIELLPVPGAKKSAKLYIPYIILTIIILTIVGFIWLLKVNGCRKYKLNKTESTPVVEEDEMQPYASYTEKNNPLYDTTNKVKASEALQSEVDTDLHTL

T2: Mouse CD200R1-His (mouse, UniProt Q9ES57 26-238, limits assumed)
T2 sequence (looked up): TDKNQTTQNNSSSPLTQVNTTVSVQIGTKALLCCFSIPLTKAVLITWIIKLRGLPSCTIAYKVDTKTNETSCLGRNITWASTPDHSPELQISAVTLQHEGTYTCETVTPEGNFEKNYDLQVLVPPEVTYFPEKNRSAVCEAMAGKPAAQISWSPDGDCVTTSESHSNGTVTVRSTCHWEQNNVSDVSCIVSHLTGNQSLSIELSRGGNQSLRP

T3: human CD200R1a protein (soluble recombinant) (human, UniProt Q8TD46 29-265)
T3 construct: Soluble protein used in BLI; also called human CD200R1 isoform a; not shown: His tag implied by capture on anti-Penta-HIS biosensors
T3 sequence: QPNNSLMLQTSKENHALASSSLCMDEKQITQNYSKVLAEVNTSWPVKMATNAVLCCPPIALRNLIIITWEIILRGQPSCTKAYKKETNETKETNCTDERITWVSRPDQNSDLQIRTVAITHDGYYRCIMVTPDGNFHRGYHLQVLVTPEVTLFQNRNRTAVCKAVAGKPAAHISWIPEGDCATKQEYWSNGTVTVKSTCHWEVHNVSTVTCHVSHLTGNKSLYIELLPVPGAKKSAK

T4: human CD200R1 isoform a on CHOK1 cells (CHOK1/hCD200R1a) (human, UniProt Q8TD46 25-348)
T4 construct: also called CHOK1/CD200R1a
T4 sequence: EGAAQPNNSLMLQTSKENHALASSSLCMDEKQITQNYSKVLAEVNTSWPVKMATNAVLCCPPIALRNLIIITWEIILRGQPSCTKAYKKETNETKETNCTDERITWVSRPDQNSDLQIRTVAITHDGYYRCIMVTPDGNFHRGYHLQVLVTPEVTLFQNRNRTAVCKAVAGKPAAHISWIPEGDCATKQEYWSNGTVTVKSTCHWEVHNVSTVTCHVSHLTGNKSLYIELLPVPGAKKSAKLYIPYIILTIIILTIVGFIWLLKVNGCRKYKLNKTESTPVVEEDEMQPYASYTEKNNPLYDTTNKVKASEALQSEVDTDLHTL

T5: Cynomolgus macaques CD200R1 isoform a on CHOK1 cells (CHOK1/cynoCD200R1a) (Cynomolgus macaques)
T5 chain: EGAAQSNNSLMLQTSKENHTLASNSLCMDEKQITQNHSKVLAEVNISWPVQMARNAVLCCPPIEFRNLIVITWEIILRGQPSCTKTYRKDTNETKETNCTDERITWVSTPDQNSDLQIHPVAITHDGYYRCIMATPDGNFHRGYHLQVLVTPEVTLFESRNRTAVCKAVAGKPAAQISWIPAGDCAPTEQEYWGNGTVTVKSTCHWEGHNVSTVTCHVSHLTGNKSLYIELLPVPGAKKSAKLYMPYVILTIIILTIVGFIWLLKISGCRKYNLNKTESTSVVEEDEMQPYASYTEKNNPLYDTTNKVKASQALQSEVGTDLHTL


How the values were obtained:
[1] = molecular target: T1, CD200R1a on PathHunter Jurkat CD200R1a …; test: cell-based or functional assay
Mouse CD200R1-His = molecular target: T2, Mouse CD200R1-His; test: BLI (Octet), antibody captured on anti-human Fc sensor
Protocol: (§1) To determine the binding affinities of the anti-CD200R1 antibodies to CD200R1a proteins of various species (mouse, human, Cynomolgus macaques), bio-layer interferometry (BLI) assays were carried out using an Octet® RED96e instrument. Antibodies were produced as described in Example 3.4 and diluted to 5 μg/mL using freshly prepared 1× kinetic buffer (10× kinetic buffer (Catalog #18-1105, ForteBio) was diluted with PBS(Catalog #E607016-0500, BBI Life Sciences)) and were captured on the surface of anti-human Fc (AHC) Octet biosensors (Catalog #18-5060, ForteBio) to reach capture levels between 0.9-1.2 nm. The biosensors having the captured anti-CD200R1 antibodies were then dipped in wells containing 2-fold serial dilutions of CD200R1a proteins to detect association signals, followed by dissociation steps in wells containing 1× kinetic buffer. The sensorgrams were recorded and the reference signals were subtracted before curve fitting using ForteBio Data Analysis 11.0 software. Association rates (kₒₙ) and dissociation rates (koff) were calculated using a simple one-to-one Langmuir binding model. The equilibrium dissociation constant (KD) was calculated as the ratio of koff/kₒₙ.

[2] = molecular target: T3, human CD200R1a protein (soluble …); test: BLI (Octet), antibody captured on anti-human Fc sensor, soluble CD200R1a as analyte, 1:1 fit
Protocol: as §1

[3] = molecular target: T4, human CD200R1 isoform a on CHOK1 cells …; test: flow cytometry, CHOK1/hCD200R1a cells; table beside the curves, head without unit, x axis Log [Ab] (nM)
Protocol: (§2) This example is intended to investigate the in vitro binding activity of human anti-CD200R1 monoclonal antibodies to human/Cynomolgus macaques CD200R1a expressed on the surface of cells. The anti-CD200R1 antibodies were produced as described in Example 3.4 and the binding experiments at the cell level were performed using CHOK1/hCD200R1a and CHOK1-cynoCD200R1a.
(§3) Briefly, CHOK1/hCD200R1a cells and CHOK1-cynoCD200R1a cells were digested, and collected, and then were resuspended in PBS containing 2% BSA, respectively. The cell density was adjusted to 1×10⁶ cells/mL. The cells were seeded in a 96-well V-bottom plate (Corning, #3894) at 100 μL/well, followed by the addition of test antibodies and reference antibodies in a series diluted concentration, each at 100 μL/well. The cells were incubated away from light at 4° C. for 1 h. Thereafter, the cells in each well were rinsed twice with 100 μL of pre-cooled PBS containing 2% BSA, and centrifuged at 500 g at 4° C. for 5 min, and then the supernatant was discarded. 100 μL of fluorescent secondary antibody (Alexa Fluor 488-conjugated AffiniPure Goat Anti-Human IgG, Fcγ Fragment Specific, Jackson, #109-545-098, diluted in a 1:1000 ratio) was added in each well, and the plate was incubated away from light at 4° C. for 1 h. The cells in each well were rinsed twice with 100 μL of pre-cooled PBS containing 2% BSA, and centrifuged at 500 g at 4° C. for 5 min, and then the supernatant was discarded. Finally, the cells in each well were resuspended in 200 μL of pre-cooled PBS containing 2% BSA, and the fluorescence signal values were read using a BD CantoII flow cytometer.

[4] = molecular target: T4, human CD200R1 isoform a on CHOK1 cells …; test: flow cytometry blocking assay: antibody titrated against biotin-labelled human CD200 binding to CHOK1/hCD200R1a cells
Protocol: To study the activity of human anti-CD200R1 antibodies in blocking the binding of human CD200 to its receptor CD200R1a in vitro, CHOK1/hCD200R1a was used to perform cell-level human CD200/human CD200R1a binding and blocking experiments.
(§4) In brief, CHOK1/hCD200R1a cells were digested and resuspended in 2% BSA in PBS. […] The cells were placed at 4° C. and incubated for 1 hour in the dark. […] 100 μL/well of pre-cooled PBS containing 2% BSA was added to rinse the cells twice, centrifugation was performed at 500 g, 4° C. for 5 minutes, and the supernatant was discarded. Fluorescent secondary antibody (PE Streptavidin, BD, Cat #: 554061, 1:200) was added at 100 μL/well, and incubation was performed at 4° C. for 30 minutes in the dark. The cells were washed twice with 200 μL/well of pre-cooled PBS, and were centrifuged at 500 g, 4° C. for 5 minutes, and the supernatant was discarded. Finally, 200 μL/well of pre-cooled PBS was used to resuspend the cells, and the fluorescence signal values were read using ACEA Novocyte 3000 flow cytometer. IC50 values were calculated.

[5] = molecular target: T4, human CD200R1 isoform a on CHOK1 cells …; test: flow cytometry blocking assay: biotin-labelled human CD200 binding to CHOK1/hCD200R1a cells; y axis Inhibition %
Protocol: as §4

[6] = molecular target: T4, human CD200R1 isoform a on CHOK1 cells …; test: flow cytometry blocking assay: antibody titrated against biotin-labelled human CD200 binding to CHOK1/hCD200R1a cells; head prints EC50 without unit, x axis Log [Ab] (nM), y axis Inhibition %
Protocol: as §4

[7] = molecular target: T5, Cynomolgus macaques CD200R1 isoform a …; test: flow cytometry, CHOK1/cynoCD200R1a cells (APC-A Mean); table beside the curves
[8] = molecular target: T1, CD200R1a on PathHunter Jurkat CD200R1a …; test: cell-based or functional assay; remark: listed apart in the source
[9] = molecular target: T4, human CD200R1 isoform a on CHOK1 cells …; test: flow cytometry, CHOK1/hCD200R1a cells (FITC-Mean); table beside the curves
Protocol: as §2, §3

[10] = molecular target: T4, human CD200R1 isoform a on CHOK1 cells …; test: flow cytometry, CHOK1/hCD200R1a cells (FITC-Mean); table beside the curves, head without unit, x axis Log [Ab] (nM)
[11] = molecular target: T1, CD200R1a on PathHunter Jurkat CD200R1a …; test: cell-based or functional assay; remark: listed apart in the source

Row | Binder | binding result (Mouse CD200R1-His) | EC50 [7] [nM] | MFI (MAX) [7] | IC50 of the inhibition of CD200-induced PathHunter Jurkat CD200R1a luminescence (CHOK1/hCD200 cells as CD200 source); head without unit, x axis Log [Ab] (nM) [1] [nM] | Kd [2] [nM] | koff [2] [s⁻¹] | kon [2] [M⁻¹ s⁻¹] | EC50 [3] [nM] | Blocking (Max %) [4] [%] | IC50 [4] [nM] | Blocking(Max) [5] [%] | EC50 [6] [nM] | IC50 of the inhibition of CD200-induced PathHunter Jurkat CD200R1a luminescence (CHOK1/hCD200 cells as CD200 source) [8] [nM] | MFI(Max) [9] | EC50 [10] [nM] | IC50 of the inhibition of CD200-induced PathHunter Jurkat CD200R1a luminescence (CHOK1/hCD200 cells as CD200 source) [11] [nM]
1 | PR006475 (antibody, human IgG1, kappa, L234A L235A, V domains shown) VH: QVQLQESGPGLVKPSGTLSLTCAVSGASISSGHWWSWVRQPPGKGLEWIGEIYHSGSTNYTPSLKSRVTISVDKSKNQFSLKLTSVTAADTAVYYCAREASYHYGSGSYYTPFDFWGQGTLVTVSS VL: EIVLTQSPATLSVSPGERATLSCRASQSVSSNLAWYQQKPGQAPRLLIYGASTRATGIPARFSGSGSGTEFTLTISSLQSEDFALYYCQQYNNWIIFGQGTRLEIKR | no binding | – | – | 10.6 | 12.8 | 0.000376 | 29400 | 6.97 | 110 | 32.2 | – | – | – | – | – | –
2 | PR007630 (antibody, human IgG1, kappa, V domains shown, PTM variant of PR006839 (human IgG1)) VH: QVQLVESGGGVVQPGRSLRLSCAASGFTFSSYGFHWVRQAPGKGLEWLGIIWSDASNKYYADSVKGRFTISRDNSKNTLYLQMNSLRAEDTAVYYCARDRIVGEGFDYWGQGTLVTVSS VL: DIVMTQSPLSLPVTPGEPASISCRSSQSLLHRSGYNYLDWYLQKPGQSPQLLIYLGSYRASGVPDRFSGSGSGTDFTLKISRVEAEDVGVYYCMQGLQTMYTFGQGTKLEIKR | – | 4.69 | 58600 | – | – | – | – | – | – | – | 99.9 | 0.359 | 0.46 | 18900 | 0.313 | –

Further binders by falling EC50 [7], results first:

Row | binding result (Mouse CD200R1-His) | EC50 [7] [nM] | MFI (MAX) [7] | Binder | IC50 of the inhibition of CD200-induced PathHunter Jurkat CD200R1a luminescence (CHOK1/hCD200 cells as CD200 source); head without unit, x axis Log [Ab] (nM) [1] [nM] | Kd [2] [nM] | koff [2] [s⁻¹] | kon [2] [M⁻¹ s⁻¹] | EC50 [3] [nM] | Blocking (Max %) [4] [%] | IC50 [4] [nM] | Blocking(Max) [5] [%] | EC50 [6] [nM] | IC50 of the inhibition of CD200-induced PathHunter Jurkat CD200R1a luminescence (CHOK1/hCD200 cells as CD200 source) [8] [nM] | MFI(Max) [9] | EC50 [10] [nM] | IC50 of the inhibition of CD200-induced PathHunter Jurkat CD200R1a luminescence (CHOK1/hCD200 cells as CD200 source) [11] [nM]
3 | – | 4.48 | 51200 | PR007972 (antibody, human IgG1, kappa, V domains shown, PTM variant of PR006839 (human IgG1)) VH: QVQLVESGGGVVQPGRSLRLSCAASGFTFSYYGFHWVRQAPGKGLEWLGIIWSDASNKYYADSVKGRFTISRDNSKNTLYLQMNSLRAEDTAVYYCARDRIVGEGFDYWGQGTLVTVSS VL: not shown | – | – | – | – | – | – | – | 99.9 | 0.158 | – | 19000 | 0.19 | 0.368
4 | – | 3.63 | 51800 | PR007631 (antibody, human IgG1, kappa, V domains shown, PTM variant of PR006839 (human IgG1)) VH: QVQLVESGGGVVQPGRSLRLSCAASGFTFSSYGFHWVRQAPGKGLEWLGLIWSDARHKDYADSVKGRFTISRDNSKNTLYLQMNSLRAEDTAVYYCARDRIVGEGFDYWGQGTLVTVSS VL: DIVMTQSPLSLPVTPGEPASISCRSSQSLLHRSGYNYLDWYLQKPGQSPQLLIYLGSYRWSGVPDRFSGSGSGTDFTLKISRVEAEDVGVYYCMQGLQTMYTFGQGTKLEIKR | – | – | – | – | – | – | – | 99.9 | 0.323 | 0.266 | 19400 | 0.311 | –
